Data from EP4818204A1 (Nanjing Leads Biolabs Co., Ltd., dated 2026).

T1: human GFRα1 protein (human, UniProt P56159 25-429, limits assumed)
T1 construct: Bought
T1 sequence (looked up): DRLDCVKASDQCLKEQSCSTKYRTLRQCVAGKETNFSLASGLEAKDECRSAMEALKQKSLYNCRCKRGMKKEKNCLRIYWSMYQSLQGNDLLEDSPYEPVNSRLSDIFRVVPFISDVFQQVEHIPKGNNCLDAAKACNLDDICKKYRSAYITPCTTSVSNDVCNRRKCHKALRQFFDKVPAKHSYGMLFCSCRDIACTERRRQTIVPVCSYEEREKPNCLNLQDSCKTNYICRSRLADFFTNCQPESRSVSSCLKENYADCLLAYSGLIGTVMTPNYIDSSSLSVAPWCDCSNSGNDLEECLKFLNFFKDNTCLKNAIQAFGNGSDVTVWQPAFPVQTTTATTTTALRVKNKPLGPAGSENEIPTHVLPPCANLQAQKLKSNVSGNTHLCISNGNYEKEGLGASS

T2: human BMP4 protein (human, UniProt P12644 293-408)
T2 construct: Bought
T2 sequence (looked up): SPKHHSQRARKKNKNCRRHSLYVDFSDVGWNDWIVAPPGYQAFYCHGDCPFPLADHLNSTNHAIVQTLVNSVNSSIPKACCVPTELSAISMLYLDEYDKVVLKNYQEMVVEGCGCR

T3: human GDF3 protein (human, UniProt Q9NR23 251-364, limits assumed)
T3 construct: Bought
T3 sequence (looked up): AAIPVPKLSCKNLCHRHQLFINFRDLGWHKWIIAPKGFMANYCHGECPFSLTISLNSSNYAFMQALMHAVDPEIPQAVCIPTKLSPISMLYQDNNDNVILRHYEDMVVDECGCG

T4: human Activin B protein (human, UniProt P09529 293-407)
T4 construct: Bought; Activin B is by nature a dimer of inhibin beta B chains
T4 sequence (looked up): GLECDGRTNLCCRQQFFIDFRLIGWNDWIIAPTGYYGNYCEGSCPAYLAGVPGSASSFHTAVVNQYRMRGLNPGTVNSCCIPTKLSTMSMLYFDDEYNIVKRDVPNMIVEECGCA

T5: human Activin A protein (human, UniProt P08476 311-426)
T5 construct: Bought; Activin A is by nature a dimer of inhibin beta A chains
T5 sequence (looked up): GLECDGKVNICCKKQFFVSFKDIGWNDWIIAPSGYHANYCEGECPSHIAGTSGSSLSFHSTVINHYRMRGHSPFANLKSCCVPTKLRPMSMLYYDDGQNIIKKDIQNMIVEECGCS

T6: human GDF11 protein (human, UniProt O95390 299-407)
T6 construct: Bought
T6 sequence (looked up): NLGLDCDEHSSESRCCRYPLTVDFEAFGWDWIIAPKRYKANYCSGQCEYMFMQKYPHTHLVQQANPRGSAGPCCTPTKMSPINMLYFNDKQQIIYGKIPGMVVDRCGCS

T7: human GDF2 protein (human, UniProt Q9UK05 320-429)
T7 construct: Bought
T7 sequence (looked up): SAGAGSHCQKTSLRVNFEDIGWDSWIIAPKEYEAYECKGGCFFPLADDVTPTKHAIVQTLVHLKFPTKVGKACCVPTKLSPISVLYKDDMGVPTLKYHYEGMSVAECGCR

T8: human GDF1 protein (human, UniProt P27539 254-372, limits assumed)
T8 construct: Bought
T8 sequence (looked up): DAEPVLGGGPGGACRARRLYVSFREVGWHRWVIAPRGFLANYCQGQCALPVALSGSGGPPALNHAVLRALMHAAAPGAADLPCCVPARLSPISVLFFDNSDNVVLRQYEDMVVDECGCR

T9: Human GDF15 protein (human, UniProt Q99988 197-308)
T9 construct: Natural GDF15 is said to be a disulfide-linked homodimer; also called Human-GDF15-his
T9 sequence: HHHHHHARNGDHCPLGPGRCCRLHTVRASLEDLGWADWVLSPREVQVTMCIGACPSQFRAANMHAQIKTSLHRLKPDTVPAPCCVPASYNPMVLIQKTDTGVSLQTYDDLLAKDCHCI

T10: Cynomolgus monkey GDF15 protein (cynomolgus monkey, UniProt G7PWZ3 193-308)
T10 construct: Bought protein (Kactus Biosystems GDF-CE115); also called Cynomolgus GDF15 protein; Cynomolgus-GDF15
T10 sequence: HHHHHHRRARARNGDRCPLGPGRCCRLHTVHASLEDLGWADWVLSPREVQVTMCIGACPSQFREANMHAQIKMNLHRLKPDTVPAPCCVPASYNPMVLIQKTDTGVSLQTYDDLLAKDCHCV

T11: Mouse GDF15 protein (mouse, UniProt Q9Z0J7 189-303)
T11 sequence: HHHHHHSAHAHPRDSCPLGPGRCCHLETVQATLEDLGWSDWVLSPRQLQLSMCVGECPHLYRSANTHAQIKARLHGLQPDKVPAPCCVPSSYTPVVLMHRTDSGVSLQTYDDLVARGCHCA


What was measured:
[1] = biological target: human GDF8 protein (human) (UniProt O14793); assay: ELISA, coated protein, antibody at 4 µg/mL
[2] = biological target: human AMH protein (human) (UniProt P03971); assay: ELISA, coated protein, antibody at 4 µg/mL
human GFRα1 protein = biological target: T1, human GFRα1 protein; assay: ELISA, coated protein
human BMP4 protein [3] = biological target: T2, human BMP4 protein; assay: ELISA, coated protein
human GDF3 protein = biological target: T3, human GDF3 protein; assay: ELISA, coated protein
human Activin B protein = biological target: T4, human Activin B protein; assay: ELISA, coated protein
human BMP2 protein = biological target: T12, human BMP2 protein (human, UniProt P12643 283-396); assay: ELISA, coated protein
T12 construct: Bought

human TGFβ1 protein [4] = biological target: T13, human TGFβ1 protein (human, UniProt P01137 279-390); assay: ELISA, coated protein
T13 construct: Bought

human Activin A protein = biological target: T5, human Activin A protein; assay: ELISA, coated protein
human GDF11 protein = biological target: T6, human GDF11 protein; assay: ELISA, coated protein
human GDF2 protein = biological target: T7, human GDF2 protein; assay: ELISA, coated protein
human GDF1 protein = biological target: T8, human GDF1 protein; assay: ELISA, coated protein
human BMP4 protein [5] = biological target: T2, human BMP4 protein; assay: ELISA, coated protein, antibody at 4 µg/mL
Human GDF15 protein [6] = biological target: T9, Human GDF15 protein; assay: ELISA, coated protein, antibody at 4 µg/mL
human TGFβ1 protein [7] = biological target: T13, human TGFβ1 protein; assay: ELISA, coated protein, antibody at 4 µg/mL
[8] = biological target: T10, Cynomolgus monkey GDF15 protein; assay: BLI (Fortebio Octet), antibody on AHC sensor, GDF15 as analyte, 1:1 model
Mouse GDF15 protein = biological target: T11, Mouse GDF15 protein; assay: as above
Human GDF15 protein [9] = biological target: T9, Human GDF15 protein; assay: as above

T12 sequence (P12643 283-396 limits assumed): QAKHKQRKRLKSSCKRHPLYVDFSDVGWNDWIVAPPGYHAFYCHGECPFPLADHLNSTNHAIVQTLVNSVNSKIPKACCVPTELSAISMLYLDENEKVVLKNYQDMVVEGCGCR
T13 sequence (P01137 279-390 limits assumed): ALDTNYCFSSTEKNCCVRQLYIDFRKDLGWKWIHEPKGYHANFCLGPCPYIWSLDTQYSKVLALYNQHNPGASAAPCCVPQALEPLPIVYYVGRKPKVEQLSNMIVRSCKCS

OD value (OD 450 nm-620 nm) [1] | OD value (OD 450 nm-620 nm) [2] | binding result (human GFRα1 protein) | binding result (human BMP4 protein [3]) | binding result (human GDF3 protein) | binding result (human Activin B protein) | binding result (human BMP2 protein) | binding result (human TGFβ1 protein [4]) | binding result (human Activin A protein) | binding result (human GDF11 protein) | binding result (human GDF2 protein) | binding result (human GDF1 protein) | OD value (human BMP4 protein [5]) | OD value (Human GDF15 protein [6]) | OD value (human TGFβ1 protein [7]) | Kd [8] | koff [8] | kon [8] | Kd (Mouse GDF15 protein) | koff (Mouse GDF15 protein) | Binder | other results
0.0423 | 0.0464 | no binding (tested: 4 µg/mL) | no binding (tested: 4 µg/mL) | no binding (tested: 4 µg/mL) | no binding (tested: 4 µg/mL) | no binding (tested: 4 µg/mL) | no binding (tested: 4 µg/mL) | no binding (tested: 4 µg/mL) | no binding (tested: 4 µg/mL) | no binding (tested: 4 µg/mL) | no binding (tested: 4 µg/mL) | 0.0432 OD 450 nm-620 nm | 3.27 OD 450 nm-620 nm | 0.0437 OD 450 nm-620 nm | 0.312 nM | 8.24e-05 s⁻¹ | 265000 M⁻¹ s⁻¹ | 14.9 nM | 0.00241 s⁻¹ | Hu19C4C7 (antibody, human IgG1, kappa, Humanized form of murine 19C4C7; human IgG1 constant region with L234A, L235A, G237A and kappa light chain constant region; also called hu19C4C7-IgG1-mut(L234A,L235A,G237A)) heavy: QVQLVQSGAEVKKPGSSVKVSCKASGYSFTGYIMNWVRQAPGQSLEWMGDIDPYYGGPNYNQKFQGRVTITVDKSTSTAYMELSSLRSEDTAVYYCSRRDYNYGSFAYWGQGTLVTVSSASTKGPSVFPLAPSSKSTSGGTAALGCLVKDYFPEPVTVSWNSGALTSGVHTFPAVLQSSGLYSLSSVVTVPSSSLGTQTYICNVNHKPSNTKVDKKVEPKSCDKTHTCPPCPAPEAAGAPSVFLFPPKPKDTLMISRTPEVTCVVVDVSHEDPEVKFNWYVDGVEVHNAKTKPREEQYNSTYRVVSVLTVLHQDWLNGKEYKCKVSNKALPAPIEKTISKAKGQPREPQVYTLPPSREEMTKNQVSLTCLVKGFYPSDIAVEWESNGQPENNYKTTPPVLDSDGSFFLYSKLTVDKSRWQQGNVFSCSVMHEALHNHYTQKSLSLSPGK light: QIVLTQSPATLSLSPGERATLSCRASSSVNYMHWYQQKPGQAPRPLIYATSNLATGIPARFSGSGSGTDYTLTISSLEPEDFAVYYCQQWSDNPPTFGQGTKLEIKRTVAAPSVFIFPPSDEQLKSGTASVVCLLNNFYPREAKVQWKVDNALQSGNSQESVTEQDSKDSTYSLSSTLTLSKADYEKHKVYACEVTHQGLSSPVTKSFNRGEC | kon (Mouse GDF15 protein): 162000 M⁻¹ s⁻¹; Kd (Human GDF15 protein [9]): 0.0264 nM; koff (Human GDF15 protein [9]): 2.35e-05 s⁻¹; kon (Human GDF15 protein [9]): 887000 M⁻¹ s⁻¹
0.0421 | 0.0485 | no binding (tested: 4 µg/mL) | no binding (tested: 4 µg/mL) | no binding (tested: 4 µg/mL) | no binding (tested: 4 µg/mL) | no binding (tested: 4 µg/mL) | no binding (tested: 4 µg/mL) | no binding (tested: 4 µg/mL) | no binding (tested: 4 µg/mL) | no binding (tested: 4 µg/mL) | no binding (tested: 4 µg/mL) | 0.0539 OD 450 nm-620 nm | 3.21 OD 450 nm-620 nm | 0.055 OD 450 nm-620 nm | < 0.001 nM | < 1e-07 s⁻¹ | 205000 M⁻¹ s⁻¹ | 1.25 nM | 6.58e-05 s⁻¹ | HuVHH43-3 (Fc fusion, also called huVHH43-IgG1-mut(L234A,L235A,G237A); VHH humanized anti-GDF15 antibody) heavy: QLQLVESGGGLVQPGGSLRLSCAASGHTYGMGWFRQAPGKAREIVSAISRSGSSTYYADSVKGRFTISRDNSKNTLYLQMNSLRAEDTAVYICGASTSALVPTTTGMYAYWGQGTRVTVSSEPKSSDKTHTCPPCPAPEAAGAPSVFLFPPKPKDTLMISRTPEVTCVVVDVSHEDPEVKFNWYVDGVEVHNAKTKPREEQYNSTYRVVSVLTVLHQDWLNGKEYKCKVSNKALPAPIEKTISKAKGQPREPQVYTLPPSREEMTKNQVSLTCLVKGFYPSDIAVEWESNGQPENNYKTTPPVLDSDGSFFLYSKLTVDKSRWQQGNVFSCSVMHEALHNHYTQKSLSLSPGK | kon (Mouse GDF15 protein): 52500 M⁻¹ s⁻¹; Kd (Human GDF15 protein [9]): < 0.001 nM; koff (Human GDF15 protein [9]): < 1e-07 s⁻¹; kon (Human GDF15 protein [9]): 573000 M⁻¹ s⁻¹
0.0426 | 0.0537 | no binding (tested: 4 µg/mL) | no binding (tested: 4 µg/mL) | no binding (tested: 4 µg/mL) | no binding (tested: 4 µg/mL) | no binding (tested: 4 µg/mL) | no binding (tested: 4 µg/mL) | no binding (tested: 4 µg/mL) | no binding (tested: 4 µg/mL) | no binding (tested: 4 µg/mL) | no binding (tested: 4 µg/mL) | 0.0411 OD 450 nm-620 nm | 3.17 OD 450 nm-620 nm | 0.0426 OD 450 nm-620 nm | 0.231 nM | 6.13e-05 s⁻¹ | 265000 M⁻¹ s⁻¹ | 10.6 nM | 0.00116 s⁻¹ | Hu21H6D2 (antibody, human IgG1, kappa, V domains shown, Humanized form of murine 21H6D2; human IgG1 constant region with L234A, L235A, G237A and kappa light chain constant region; also called hu21H6D2-IgG1-mut(L234A,L235A,G237A)) VH: QVQLVQSGAEVKKPGASVKVSCKASGYTFTGYIMNWVRQAPGQRLEWMGDIDPYYGDAKYNQKFKGKVTITVDKSASTAYMELSSLRSEDTAVYYCARRDYDHGSFAYWGQGTLVTVSS VL: EIVLTQSPDFQSVTPKEKVTITCSASSSVNYMHWYQQKPDQSPKRLIYDTSKLASGVPSRFSGSGSGTDYTLTINSLEAEDAATYYCQQWSSNPPTFGQGTKLEIKR | kon (Mouse GDF15 protein): 110000 M⁻¹ s⁻¹; Kd (Human GDF15 protein [9]): 0.0515 nM; koff (Human GDF15 protein [9]): 4.87e-05 s⁻¹; kon (Human GDF15 protein [9]): 946000 M⁻¹ s⁻¹
